Biological target: extracellular protease domain of wildtype human ACE2 (residues 19-615) (human, UniProt Q9BYF1 19-615)
Sequence (Q9BYF1 19-615): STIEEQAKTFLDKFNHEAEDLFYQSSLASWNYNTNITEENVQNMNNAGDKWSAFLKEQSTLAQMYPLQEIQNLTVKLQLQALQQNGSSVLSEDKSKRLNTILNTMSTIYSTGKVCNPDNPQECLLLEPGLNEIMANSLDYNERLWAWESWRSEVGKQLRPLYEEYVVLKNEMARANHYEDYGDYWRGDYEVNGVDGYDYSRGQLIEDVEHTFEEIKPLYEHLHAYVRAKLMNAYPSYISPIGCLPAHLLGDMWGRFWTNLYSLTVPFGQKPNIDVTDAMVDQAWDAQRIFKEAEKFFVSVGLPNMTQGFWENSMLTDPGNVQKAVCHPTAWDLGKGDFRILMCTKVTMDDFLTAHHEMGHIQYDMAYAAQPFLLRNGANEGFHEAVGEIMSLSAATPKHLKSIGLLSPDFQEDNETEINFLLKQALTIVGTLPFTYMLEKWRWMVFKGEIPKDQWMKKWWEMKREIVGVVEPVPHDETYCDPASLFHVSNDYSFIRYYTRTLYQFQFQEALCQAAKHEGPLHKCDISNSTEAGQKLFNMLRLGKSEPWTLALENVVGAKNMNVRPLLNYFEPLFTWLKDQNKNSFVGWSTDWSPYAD

B1: receptor binding domain (RBD) of HCoV-NL63 spike (residues 481-616) (ligand)
chain: QHTDINFTATASFGGSCYVCKPHQVNISLNGNTSVCVRTSHFSIRYIYNRVKSGSPGDSSWHIYLKSGTCPFSFSKLNNFQKFKTICFSTVEVPGSCNFPLEATWHYTSYTIVGALYVTWSEGNSITGVPYPVSGI
For B1, which Kd is on record?
Its Kd is 430 nM.
